Source: paper PMC11249637, “Interaction of the Atypical Tetracyclines Chelocardin and Amidochelocardin with Renal Drug Transporters” (ACS Pharmacology & Translational Science, 2024)
Values joined by “and” are separate entries in the source; they are usually repeats but may differ in a detail not shown here. Identical values can stand only once.

What was measured:
p-gp = tested on: p-gp; set-up: method as in PMID 27499331; settings: cited from earlier work
[1] = tested on: organic anion transporters; set-up: method as in PMID 27499331; settings: cited from earlier work
[2] = substrate: CC(=O)C1=C(O)[C@@H](N)[C@H]2Cc3c(c(O)c4c(O)c(C)ccc4c3C)C(=O)[C@@]2(O)C1=O; assay: Three-point uptake (substrate assessment) in mOct1-overexpressing HEK293 cells; assay type: in vitro ADME, mouse; settings: other: Michaelis–Menten fit, 1, 10 and 100 μM; 30.0 °C
Experimental: (§1) This is important to gain a better understanding of the underlying mechanisms of secretion into urine. Therefore, we assessed the amount of compound taken up by the vector and transporter cells at three different concentrations (1, 10, and 100 μM for mOat1 and mOct1; 0.1, 1, and 10 μM for mOat3) and at two different incubation periods (1 and 5 min for mOat1 and mOct1; 5 and 10 min for mOat3).
(§2) The incubation buffer contained CHD and CDCHD in a final concentration of 1, 10, and 100 μM. After 1 and 5 min, the incubation was terminated. In addition, the probe inhibitor decynium22 (50 μM) was added in one concentration to 10 μM CHD and CDCHD, respectively, and after 1 and 5 min, the incubation was stopped. Inhibition of mOct1-mediated ^3H-MPP (10 μM) uptake by 50 μM decynium22 was performed as a control experiment. After 1 min, the incubation was terminated. All experiments were conducted in triplicate.
(§3) First, a calibration curve was prepared by spiking different concentrations of CHD and CDCHD into the cell matrix. Caffeine was used as an internal standard. In addition, quality control samples (QCs) were prepared for CHD and CDCHD in a cell matrix. The following extraction procedures were used: 300 μL of acetonitrile/water (1:1) is added to the cell pellet (sample or calibration/QC sample) for 15 min at 2000 rpm on an Eppendorf MixMate vortex mixer. 10 μL of this extracted sample is used for further analysis. 10 μL of the extracted cell sample is further extracted with 25 μL of a mixture of methanol/acetonitrile (2:1) containing 12.5 ng/mL caffeine as an internal standard (on ice) for 5 min at 2000 rpm on an Eppendorf MixMate vortex mixer. […] Samples were analyzed using an Agilent 1290 Infinity II HPLC system coupled to an AB Sciex QTrap6500plus mass spectrometer. […]
(§4) For statistical testing of differences in uptake ratio or for the inhibitory effect, an ordinary one-way ANOVA test was performed using GraphPad Prism 9.5.1 software. […] Michaelis–Menten kinetics were determined using the Michaelis–Menten algorithm of GraphPad Prism 9.5.1 software. […]

[3] = substrate: Cc1ccc2c(C)c3c(c(O)c2c1O)C(=O)[C@@]1(O)C(=O)C(C(N)=O)=C(O)[C@@H](N)[C@H]1C3; assay: as above; assay type: in vitro ADME, mouse; settings: other: Michaelis–Menten fit, 1, 10 and 100 μM; 30.0 °C
Experimental: as §1, §2, §3, §4

[4] = substrate: CC(=O)C1=C(O)[C@@H](N)[C@H]2Cc3c(c(O)c4c(O)c(C)ccc4c3C)C(=O)[C@@]2(O)C1=O; assay: Three-point uptake (substrate assessment) in mOat3-overexpressing HEK293 cells; assay type: in vitro ADME, mouse; settings: other: Michaelis–Menten fit, 0.1, 1 and 10 μM; 30.0 °C
Experimental: as §1
The incubation buffer contained CHD and CDCHD in a final concentration of 0.1, 1, and 10 μM. After 5 and 10 min, the incubation was terminated. In addition, the probe inhibitor probenecid (100 μM) was added in one concentration to 10 μM CHD and CDCHD, respectively, and after 5 and 10 min, the incubation was stopped. Inhibition of mOat3-mediated ^3H-ES (1 μM) uptake by 100 μM probenecid was performed as a control experiment. After 1 min, the incubation was terminated. […]
First, a calibration curve was prepared by spiking different concentrations of CHD and CDCHD into the cell matrix. […] Samples were analyzed using an Agilent 1290 Infinity II HPLC system coupled to an AB Sciex QTrap6500plus mass spectrometer. […]
as §4

[5] = substrate: CC(=O)C1=C(O)[C@@H](N)[C@H]2Cc3c(c(O)c4c(O)c(C)ccc4c3C)C(=O)[C@@]2(O)C1=O; assay: Three-point uptake (substrate assessment) in mOat1-overexpressing HEK293 cells; assay type: in vitro ADME, mouse; settings: other: Michaelis–Menten fit, 1, 10 and 100 μM; 30.0 °C
Experimental: as §1
as §2, with “probenecid (100” for “decynium22 (50”, “mOat1-mediated ^3H-PAH” for “mOct1-mediated ^3H-MPP”, “100” for “50”, “probenecid” for “decynium22”
(§5) First, a calibration curve was prepared by spiking different concentrations of CHD and CDCHD into the cell matrix. Caffeine was used as an internal standard. In addition, quality control samples (QCs) were prepared for CHD and CDCHD in a cell matrix. The following extraction procedures were used: 300 μL of acetonitrile/water (1:1) is added to the cell pellet (sample or calibration/QC sample) for 15 min at 2000 rpm on an Eppendorf MixMate vortex mixer. 10 μL of this extracted sample is used for further analysis. 10 μL of the extracted cell sample is further extracted with 25 μL of a mixture of methanol/acetonitrile (2:1) containing 12.5 ng/mL caffeine as an internal standard (on ice) for 5 min at 2000 rpm on an Eppendorf MixMate vortex mixer. Then, samples were spun down at 15,870 × g for 10 min. Supernatants were transferred to standard HPLC glass vials. Samples were analyzed using an Agilent 1290 Infinity II HPLC system coupled to an AB Sciex QTrap6500plus mass spectrometer. LC conditions were as follows: column: Agilent Zorbax Eclipse Plus C18, 50 × 2.1 mm, 1.8 μm; temperature: 30°C; injection volume: 5 μL per sample; flow rate: 700 μL/min. Samples were run under the following conditions. Solvents: A: 100% water +0.1% formic acid; solvent B: 100% acetonitrile +0.1% formic acid. The gradient for CDCHD was as follows: 99% A at 0 min, 99% A until 0.1 min, 99–90% A from 0.1 to 1.0 min, 90–50% A from 1.0 to 2.4 min, 50–35% A from 2.4 to 2.7 min, 35–0% A from 2.7 until 4.5 min, 0% A until 5.5 min, 0–99% from 5.5 to 5.7 min, 99% A until 6.0 min. […]
as §4

[6] = substrate: Cc1ccc2c(C)c3c(c(O)c2c1O)C(=O)[C@@]1(O)C(=O)C(C(N)=O)=C(O)[C@@H](N)[C@H]1C3; assay: as above; assay type: in vitro ADME, mouse; settings: other: Michaelis–Menten fit, 1, 10 and 100 μM; 30.0 °C
Experimental: as §1
as §2, with “probenecid (100” for “decynium22 (50”, “mOat1-mediated ^3H-PAH” for “mOct1-mediated ^3H-MPP”, “100” for “50”, “probenecid” for “decynium22”
as §5, §4

CN(C)c1cc(CNCC(C)(C)C)c(O)c2c1C[C@H]1C[C@H]3[C@H](N(C)C)C(O)=C(C(N)=O)C(=O)[C@@]3(O)C(O)=C1C2=O [omadacycline]
Km (p-gp): ~82 µM
substrate or inhibitor of organic anion transporters (in words) [1]: neither a substrate nor an inhibitor

B1: mOct1 (Mus musculus) (protein)
chain: MPTVDDVLEHVGEFGWFQKQAFLLLCLISASLAPIYVGIVFLGFTPDHHCRSPGVAELSQRCGWSPAEELNYTVPGLGSAGEASFLSQCMKYEVDWNQSTLDCVDPLSSLAANRSHLPLSPCEHGWVYDTPGSSIVTEFNLVCGDAWKVDLFQSCVNLGFFLGSLVVGYIADRFGRKLCLLVTTLVTSLSGVLTAVAPDYTSMLLFRLLQGMVSKGSWVSGYTLITEFVGSGYRRTTAILYQVAFTVGLVGLAGVAYAIPDWRWLQLAVSLPTFLFLLYYWFVPESPRWLLSQKRTTQAVRIMEQIAQKNRKVPPADLKMMCLEEDASERRSPSFADLFRTPSLRKHTLILMYLWFSCAVLYQGLIMHVGATGANLYLDFFYSSLVEFPAAFIILVTIDRIGRIYPIAASNLVAGAACLLMIFIPHELHWLNVTLACLGRMGATIVLQMVCLVNAELYPTFIRNLGMMVCSALCDLGGIFTPFMVFRLMEVWQALPLILFGVLGLSAGAVTLLLPETKGVALPETIEEAENLGRRKSKAKENTIYLQVQTGKSPHT
notes: expressed in transfected cells; host or cells: HEK293
Km [2]: 8.91 µM and 8.9 µM
Vmax [2]: 49 nM/min
Km [3]: 55.2 µM

B2: mOat3 (Mus musculus) (protein)
chain: MTFSEILDRVGSMGPFQYLHVTLLALPILGIANHNLLQIFTATTPDHHCRPPPNASLEPWVLPLGPNGKPEKCLRFVHLPNASLPNDTQGATEPCLDGWIYNSTRDTIVTEWDLVCGSNKLKEMAQSVFMAGILVGGPVFGELSDRFGRKPILTWSYLLLAASGSSAAFSPSLTVYMIFRFLCGCSISGISLSTIILNVEWVPTSTRAISSTTIGYCYTIGQFILPGLAYAVPQWRWLQLSVSAAFFIFSLLSWWVPESIRWLVLSGKFSKALKTLQRVATFNGKKEEGEKLTVEELKFNLQKDITSAKVKYGLSDLFRVSILRRVTFCLSLAWFATGFAYYSLAMGVEEFGVNIYILQIIFGGVDIPAKFITILSISYLGRRITQGFLLILAGVAILALIFVSSEMQLLRTALAVFGKGCLSGSFSCLFLYTSELYPTVLRQTGMGISNIWARVGSMIAPLVKITGELQPFIPNVIFGTMTLLGGSAAFFLLETLNRPLPETIEDIQDWYQQTKKTKQEPEAEKASQTIPLKTGGP
notes: as for B1
Km [4]: 6.1 µM and 6 µM
Vmax [4]: 26.42 nM/min

B3: mOat1 (Mus musculus) (protein)
chain: MAFNDLLKQVGGVGRFQLIQVTMVVAPLLLMASHNTLQNFTAAIPAHHCRPPANANLSKDGGLEAWLPLDKQGRPESCLRFPFPHNGTEANGTGVTEPCLDGWVYDNSTFPSTIVTEWNLVCSHRAFRQLAQSLFMVGVLLGAMMFGYLADRLGRRKVLILNYLQTAVSGTCAAYAPNYTVYCIFRLLSGMSLASIAINCMTLNMEWMPIHTRAYVGTLIGYVYSLGQFLLAGIAYAVPHWRHLQLAVSVPFFVAFIYSWFFIESARWYSSSGRLDLTLRALQRVARINGKQEEGAKLSIEVLQTSLQKELTLNKGQASAMELLRCPTLRRLFLCLSMLWFATSFAYYGLVMDLQGFGVSMYLIQVIFGAVDLPAKFVCFLVINSMGRRPAQLASLLLAGICILVNGIIPRGHTIIRTSLAVLGKGCLASSFNCIFLYTGELYPTMIRQTGLGMGSTMARVGSIVSPLISMTAEFYPSIPLFIFGAVPVAASAVTALLPETLGQPLPDTVQDLKSRSRGKQKQQQLEQQKQMIPLQVSTQEKNGL
notes: as for B1
Km [5]: 65.08 µM
Vmax [5]: 82.38 nM/min
Km [6]: 39.64 µM
Vmax [6]: 11.48 nM/min
